Paper PMC8324300, “CDK1 controls CHMP7-dependent nuclear envelope reformation” (eLife, 2021)

Tests used:
Details in all cases: both partners purified
[1] = target: T1, recombinant CHMP7 S3D/S441D (human, UniProt Q8WUX9 1-453, S3D | S441D); test: co-sedimentation; 5 μM CHMP7 or mutant with 10 μM HA-LEM2^CT (one legend says equimolar) in TKD buffer (50 mM Tris HCl pH 8, 150 mM KCl, 1 mM DTT), room temperature for 2 hr; 22,000 x g for 40 min at 4°C; blots with anti-CHMP7 and anti-HA
T1 construct: CHMP7, human, full length with phosphomimetic residues at Ser3 and Ser441; source: E. coli BL21(DE3), purified (Ni-NTA, TEV cleavage, Superdex 200); not shown: 2xHis6, N-terminal, cleaved; NusA, N-terminal, cleaved
T1 sequence (looked up): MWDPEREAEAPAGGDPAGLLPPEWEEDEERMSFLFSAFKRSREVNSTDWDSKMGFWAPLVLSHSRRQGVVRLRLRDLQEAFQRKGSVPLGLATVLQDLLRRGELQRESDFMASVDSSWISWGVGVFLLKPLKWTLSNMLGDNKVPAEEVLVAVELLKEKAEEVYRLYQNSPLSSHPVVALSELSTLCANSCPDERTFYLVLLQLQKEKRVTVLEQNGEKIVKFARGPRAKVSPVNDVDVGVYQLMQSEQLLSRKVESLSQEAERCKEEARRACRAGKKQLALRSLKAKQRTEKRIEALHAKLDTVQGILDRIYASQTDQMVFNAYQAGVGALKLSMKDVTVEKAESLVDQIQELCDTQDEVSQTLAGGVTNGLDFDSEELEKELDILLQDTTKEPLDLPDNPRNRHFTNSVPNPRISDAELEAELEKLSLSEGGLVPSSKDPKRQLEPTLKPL

[2] = target: T2, recombinant CHMP7 S3E/S441E (human, UniProt Q8WUX9 1-453, S3E | S441E); test: as above
T2 construct: CHMP7, human, full length with phosphomimetic residues at Ser3 and Ser441; also called CHMP7 S3E/D441E (as printed once in the methods); source: E. coli BL21(DE3), purified (Ni-NTA, TEV cleavage, Superdex 200); not shown: 2xHis6, N-terminal, cleaved; NusA, N-terminal, cleaved
T2 sequence (looked up): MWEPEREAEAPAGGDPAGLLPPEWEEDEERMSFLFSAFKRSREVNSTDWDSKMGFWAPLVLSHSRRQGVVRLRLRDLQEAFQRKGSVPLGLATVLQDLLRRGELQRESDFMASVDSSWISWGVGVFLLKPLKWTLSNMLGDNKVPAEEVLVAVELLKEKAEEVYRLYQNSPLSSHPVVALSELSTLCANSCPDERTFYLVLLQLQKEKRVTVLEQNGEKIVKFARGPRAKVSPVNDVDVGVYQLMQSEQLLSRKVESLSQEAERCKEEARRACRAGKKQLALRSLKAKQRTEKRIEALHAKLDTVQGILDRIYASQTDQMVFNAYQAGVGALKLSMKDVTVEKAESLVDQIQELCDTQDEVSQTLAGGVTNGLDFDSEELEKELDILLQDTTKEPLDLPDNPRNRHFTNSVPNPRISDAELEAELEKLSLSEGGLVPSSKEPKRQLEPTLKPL

[3] = target: T3, recombinant CHMP7 (full length, wild type) (human, UniProt Q8WUX9 1-453); test: co-IP; purified CHMP7 or S3D/S441D with HA-LEM2^CT at 1:2 in TKD buffer, overnight at 4°C; CHMP7 captured on anti-CHMP7 Dynabeads; washes with 0.05% Tween-20; blots with anti-CHMP7 and anti-HA
T3 construct: CHMP7, human, full-length open reading frame; the TEV site cleaves at the 1st methionine; In the CDK1 experiments this is the sample incubated with CDK1:CyclinB1 without ATP; also called CHMP7 wildtype; WT; source: E. coli BL21(DE3), purified (Ni-NTA, TEV cleavage, Superdex 200, monomeric fractions); not shown: 2xHis6, N-terminal, cleaved; NusA, N-terminal, cleaved
T3 sequence (looked up): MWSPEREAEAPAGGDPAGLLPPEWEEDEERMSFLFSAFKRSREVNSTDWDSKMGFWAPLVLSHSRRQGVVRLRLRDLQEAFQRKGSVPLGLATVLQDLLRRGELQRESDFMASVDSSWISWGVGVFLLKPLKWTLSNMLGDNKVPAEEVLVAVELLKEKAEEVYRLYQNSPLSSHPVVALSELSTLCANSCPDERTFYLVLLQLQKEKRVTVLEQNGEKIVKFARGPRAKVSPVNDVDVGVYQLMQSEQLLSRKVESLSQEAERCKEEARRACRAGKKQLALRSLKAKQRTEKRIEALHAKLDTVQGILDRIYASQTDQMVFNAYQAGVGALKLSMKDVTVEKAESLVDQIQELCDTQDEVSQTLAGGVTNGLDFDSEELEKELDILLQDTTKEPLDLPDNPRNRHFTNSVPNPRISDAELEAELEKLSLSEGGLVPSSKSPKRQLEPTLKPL

[4] = target: T4, CDK1-phosphorylated CHMP7 (human, UniProt Q8WUX9 1-453, phosphoserine at Ser3 and Ser441 (CDK1 sites named by the paper)); test: co-IP; CHMP7 pre-incubated with CDK1:CyclinB1 with or without 3 mM ATP, then 5 μM CHMP7 with 10 μM HA-LEM2^CT dialysed overnight at 4°C from HiSalt (250 mM KCl) into LoSalt buffer (30 mM HEPES pH 8, 25 mM KCl, 1 mM DTT); CHMP7 captured on anti-CHMP7 Dynabeads
T4 construct: CHMP7, human, full-length open reading frame, phosphorylated in vitro by CDK1:CyclinB1; also called recombinant CHMP7 incubated with CDK1 and CCNB1 in the presence of ATP; source: E. coli BL21(DE3), purified; phosphorylated in vitro with bought CDK1:CyclinB1 complex (Millipore) and 3 mM ATP; not shown: 2xHis6, N-terminal, cleaved; NusA, N-terminal, cleaved
T4 sequence (looked up): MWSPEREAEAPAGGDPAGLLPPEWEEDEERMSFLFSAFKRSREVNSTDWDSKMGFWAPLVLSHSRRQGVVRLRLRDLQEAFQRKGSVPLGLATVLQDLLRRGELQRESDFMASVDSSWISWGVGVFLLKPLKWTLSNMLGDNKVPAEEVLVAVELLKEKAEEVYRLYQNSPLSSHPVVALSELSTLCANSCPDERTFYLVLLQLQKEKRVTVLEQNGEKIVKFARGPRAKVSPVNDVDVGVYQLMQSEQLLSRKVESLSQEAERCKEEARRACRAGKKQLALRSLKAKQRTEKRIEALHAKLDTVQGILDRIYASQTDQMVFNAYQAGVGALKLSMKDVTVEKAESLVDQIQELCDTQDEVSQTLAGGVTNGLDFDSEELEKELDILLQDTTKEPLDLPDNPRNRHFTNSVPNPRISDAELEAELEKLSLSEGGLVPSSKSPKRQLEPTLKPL

binding result [1]: binds | binding result [2]: binds | binding result [3]: binds | binding result [4]: binds
B1: recombinant HA-LEM2^CT (LEM2 C-terminal domain 395-503) (domain or fragment, human, UniProt Q8NC56 395-503, looked up)
chain: ILLKYRWRKLEEEEQAMYEMVKKIIDVVQDHYVDWEQDMERYPYVGILHVRDSLIPPQSRRRMKRVWDRAVEFLASNESRIQTESHRVAGEDMLVWRWTKPSSFSDSER
notes: LEM2 (LEMD2), human, codon-optimised synthetic gene, C-terminal domain residues 395-503; also called LEM2's C-terminus; source: E. coli BL21(DE3), purified (Ni-NTA, on-bead TEV cleavage); not shown: 2xHis6, N-terminal, cleaved; NusA, N-terminal, cleaved; HA, N-terminal, kept
